Measurements from patent US20200283507A1 (US Dept. of Health and Human Services, published 2020).

T1: Hu/NoV/GI.1/Norwalk/1968/U.S. VLP (human norovirus GI.1, UniProt Q83884 1-530 (Norovirus (strain entry), limits assumed))
T1 construct: mature; full-length VP1 (ORF2) assembled as virus-like particle in baculovirus/Sf9; also called Norwalk VLP; NV
T1 sequence (looked up): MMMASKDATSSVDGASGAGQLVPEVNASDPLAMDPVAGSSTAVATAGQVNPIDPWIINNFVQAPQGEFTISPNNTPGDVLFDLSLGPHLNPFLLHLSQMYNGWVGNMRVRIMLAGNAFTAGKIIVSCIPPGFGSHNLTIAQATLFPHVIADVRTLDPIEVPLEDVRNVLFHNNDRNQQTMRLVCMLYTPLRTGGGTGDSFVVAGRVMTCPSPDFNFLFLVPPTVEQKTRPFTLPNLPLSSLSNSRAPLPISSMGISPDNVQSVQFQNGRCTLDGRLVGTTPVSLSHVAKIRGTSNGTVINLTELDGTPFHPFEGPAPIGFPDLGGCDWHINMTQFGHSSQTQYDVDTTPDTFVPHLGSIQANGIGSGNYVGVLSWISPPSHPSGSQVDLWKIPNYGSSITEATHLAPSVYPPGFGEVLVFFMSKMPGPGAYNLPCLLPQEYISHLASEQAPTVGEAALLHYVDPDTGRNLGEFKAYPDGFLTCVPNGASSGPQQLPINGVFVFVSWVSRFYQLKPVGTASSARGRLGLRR

B1: VHH 12.2 (VHH)
VHH: DVQLQASGGGLVQAGGSLRLSCAASGSTISSYAMAWYRQAPGKRRELVAHISSGGSTNYADSVKGRFTISRDNAKNTVYLQMNSLKPEDTAVYYCNIYYGGDYYYTGVKPNPWGQGTQVTVSS
notes: llama VHH, Norwalk library; pHEN6, C-terminal His6 tag
B2: VHH 19 (VHH)
VHH: QVKLQQSGGGLVQPGGSLRLSCAASGFTFRNYAMSWVRQAPGKGLEWVSAIAAGGAVTKYADSVKGRFTISRDNARDTLYLQMNSLKPEDTAVYYCAKPRDFWYSPEFDFRGQGTQVTVSS
notes: MD2004 library, subtractive biopanning; His6 tag; also called 19.1; clone 19
B3: VHH 8.1 (VHH)
VHH: QVKLQESGGGLVQAGGSLRLSCAASGFTFATYAMAWYRQAPGKQRELVASISNFGSTAYGDSVKGRFTISRDNAKNTVYLEMNSLKSEDTAVYYCKRVRDVIGRPELWGQGTQVTVSS
notes: as for B1
B4: VHH 11.2 (VHH)
VHH: DVQLQASGGGLVQAGGSLRLSCAASTSRFSSYAMGWSRQAPGKQRELVASISSSGLTTNYADSVKGRFTISRDNAKNTVYLQMNSLKPEDTAVYYCKADGRRYSLNEYWGQGTQVTVSS
notes: llama VHH, Norwalk library; pHEN6, C-terminal His6 tag; also called VHH 11.1
B5: VHH 1 (VHH)
VHH: QVQLQQSGGGLVQAGGSLRLSCAASGLAFSSYAITWLRQAPGTEREFVALISGSGSSTYYADSVKGRFTISRNNAKNTVYLQMNSLKPEDTAVYYCTASEFLLHPPPPNQKYDYWGQGTQVTVSS
notes: llama VHH, MD2004 (GII.4) library; pHEN6, C-terminal His6 tag; also called 1.1; clone 1
B6: VHH 16 (VHH)
VHH: QVKLQQSGGGLVQPGGSLRLTCAASGFPFSTYAIRWVRRPPGKGLEWVSTIHPDFTTNYADSVSRRFTISRDNAKNTVYLQMNSLKPEDTAVYYCSRGVSGERGQGTQVTVSS
notes: MD2004 library, subtractive biopanning; His6 tag; also called 16.1; clone 16
B7: VHH 14.5 (VHH)
VHH: DVQLQASGGGLVQAGGSLRLSCVASARTFSSYAMGWFRQAPGKEREFVAAISWSGASTDYADSVKGRFTISRDNAKKTVYLQMNTLKPEDTAVYYCAAHHITPTGSYYYSEPLPVDMVYDYWGQGTQVTVSS
notes: as for B1
B8: VHH 9.8 (VHH)
VHH: QVKLQQSGGGLVQAGGSLRLSCAASGTFSRYAMGWFRQAPGKEREFVAAINWTGGSTYYADSVKGRFTISGDNAKNTVYLQMNSLKPGDTAVYYCAAEVHPGDYGLTYMQSQYEYDYWGQGTQVTVSS
notes: llama VHH, Norwalk library; His6 tag
B9: VHH 3.2 (VHH)
VHH: QVQLQESGGGLVQPGGSLRLSCAASESTPSINTMGWYRQAPGKERELVATITSGGMTNYADSVKGRFTISRDNGKNTVYLQMNSLEPGDTAVYYCNLKRRDLQARFGGYWGQGTQVTVSS
notes: llama VHH, MD2004 library; pHEN6, C-terminal His6 tag; also called clone 3.2
B10: VHH 2.1 (VHH)
VHH: QVQLQESGGGLVQAGGSLRLSCAASGLTFSSYAMGWFHQAPGKEREFVAAINWSGRDTYYADSVKGRFTISRDNRKNTVYLQMNSLKPEDTAVYYCAAAEFFSSGDPLPGMDYWGKGTLVTVSS
notes: llama VHH, MD2004 library; pHEN6, C-terminal His6 tag; also called clone 2.1

How the values were obtained:
[1] = biological target: T2, Hu/NoV/GI.1/P7-587/2007/Stromstad/Sweden VLP (human norovirus GI.1); assay: cell-based or functional assay
[2] = biological target: T2, Hu/NoV/GI.1/P7-587/2007/Stromstad/Sweden …; assay: VLP ELISA
[3] = biological target: T1, Hu/NoV/GI.1/Norwalk/1968/U.S. VLP; assay: VLP ELISA
[4] = biological target: T1, Hu/NoV/GI.1/Norwalk/1968/U.S. VLP; assay: blockade ELISA: VLP binding to PGM type III
Protocol: (§1) Pig Gastric Mucin Type III (PGM) (Sigma Chemicals) was used as a substrate for NoV VLP antibody-blockade assay as previously described. Briefly, PGM was resuspended in PBS at 5 mg/ml and coated onto 96 well U bottom polyvinyl plates Dynatech (Nunc, Thermo, USA) at 10 μg/ml in PBS for 4 hours. Plates were then blocked ON at 4° C. in 5% dry milk in 0.05% Tween₂₀-PBS. […] One hundred μl of VLPs-VHH mix were transferred to the PGM coated plates and incubated for 1 hour. Bound VLPs were detected by specific hyperimmune sera made in guinea pig, followed by anti-guinea pig IgG-HRP (KLP). ABTS/H₂O₂ was used as chromogen/substrate solution. All incubations were performed at room temperature and absorbance at 405 nm was measured. Mean % control binding, EC50 and criteria for determination of a blockade VHH were calculated as described above.

[5] = biological target: T3, Hu/NoV/GII.4/MD145-12/1997/U.S. VLP (human norovirus GII.4); assay: cell-based or functional assay
[6] = biological target: T4, Hu/NoV/GII.4/MD2004/2004/U.S. VLP (human norovirus GII.4); assay: cell-based or functional assay
[7] = biological target: T5, Hu/NoV/GII.2/Henryton/1971/U.S. VLP (human norovirus GII.2); assay: VLP ELISA
T5 construct: mature; baculovirus VLP; VP2 may be present

[8] = biological target: T6, Hu/GII.6/Bethesda/2012/U.S. VLP (human norovirus GII.6); assay: VLP ELISA
T6 construct: mature; baculovirus VLP; VP2 may be present

[9] = biological target: T7, Hu/NoV/GII.1/Hawaii/1971/U.S. VLP (human norovirus GII.1); assay: VLP ELISA
T7 construct: mature; baculovirus VLP; VP2 may be present

[10] = biological target: T8, Hu/NoV/GII.3/CHDC4031/1988/U.S. VLP (human norovirus GII.3); assay: VLP ELISA
T8 construct: mature; baculovirus VLP; VP2 may be present

[11] = biological target: T9, Hu/NoV/GII.7/DC119/U.S. VLP (human norovirus GII.7); assay: VLP ELISA
T9 construct: mature; baculovirus VLP; VP2 may be present

[12] = biological target: T10, Hu/NoV/GII.4/HS-191/2001/U.S. VLP (human norovirus GII.4); assay: VLP ELISA
T10 construct: mature; baculovirus VLP; VP2 may be present

[13] = biological target: T3, Hu/NoV/GII.4/MD145-12/1997/U.S. VLP; assay: VLP ELISA
[14] = biological target: T11, Hu/NoV/GII.4/CHDC4871/1977/U.S. VLP (human norovirus GII.4); assay: VLP ELISA
T11 construct: mature; baculovirus VLP; VP2 may be present

[15] = biological target: T12, Hu/NoV/Snow Mountain/GII.2/U.S. VLP (human norovirus GII.2); assay: VLP ELISA
T12 construct: mature; baculovirus VLP; VP2 may be present

[16] = biological target: T4, Hu/NoV/GII.4/MD2004/2004/U.S. VLP; assay: VLP ELISA
[17] = biological target: T13, Hu/NoV/GII.4/RockvilleD1/2012/U.S. VLP (human norovirus GII.4); assay: VLP ELISA
T13 construct: mature; baculovirus VLP; VP2 may be present

[18] = biological target: T3, Hu/NoV/GII.4/MD145-12/1997/U.S. VLP; assay: blockade ELISA: VLP binding to saliva Ly+
Protocol: (§2) For this assay saliva positive for Ly antigen collected from a secretor individual was used. Saliva was boiled (95° C.) for 10 minutes immediately after collection, centrifuged for 5 minutes at 13000×g and the supernatants stored at −20° C. until used. ELISA 96 well U bottom polyvinyl plates Dynatech (Nunc, Thermo, EEUU) were coated with 100 μl/well of a 1/400 saliva dilution in 50 μM carbonate-bicarbonate buffer, pH 9.6. The plate was incubated overnight at 37° C. in a wet atmosphere. In parallel, serial two-fold dilutions of VHH starting from 8 ug/ml were mixed with 1.5 ug/ml of NoV VLP Norwalk and MD145 and incubated for 1h at 37° C. After 6 washes and a blocking step with 5% dry milk/0.05% Tween₂₀-PBS, 50 ul of each VHH-VLP mixture was transferred to the reaction plate, in duplicate. The assay was developed using a specific polyclonal antiserum made in guinea pig (1:10,000) followed by a peroxidase labeled anti-guinea pig IgG (1:2,000) and ABTS/H₂O₂ as substrate chromogen (KPL), 100 μl per well. Absorbance at 405 nm was measured. Mean % control binding, EC50 and criteria for determination of a blockade VHH were calculated as described above.

[19] = biological target: T4, Hu/NoV/GII.4/MD2004/2004/U.S. VLP; assay: blockade ELISA: VLP binding to PGM type III
Protocol: as §1

[20] = biological target: T3, Hu/NoV/GII.4/MD145-12/1997/U.S. VLP; assay: blockade ELISA: VLP binding to synthetic HBGA H3
[21] = biological target: T1, Hu/NoV/GI.1/Norwalk/1968/U.S. VLP; assay: cell-based or functional assay
[22] = biological target: T1, Hu/NoV/GI.1/Norwalk/1968/U.S. VLP; assay: blockade ELISA: VLP binding to saliva Ly+
Protocol: as §2

Binder | HAI titer, 0 Rh- RBC [1] [µg/mL] | minimum concentration of VHH able to recognize 100 ng of VLP [2] [ng/well] | minimum concentration of VHH able to recognize 100 ng of VLP [3] [ng/well] | EC50 [4] [µg/mL] | minimum concentration of VHH able to recognize 100 ng of VLP [12] [ng/well] | minimum concentration of VHH able to recognize 100 ng of VLP [13] [ng/well] | minimum concentration of VHH able to recognize 100 ng of VLP [14] [ng/well] | minimum concentration of VHH able to recognize 100 ng of VLP [16] [ng/well] | minimum concentration of VHH able to recognize 100 ng of VLP [17] [ng/well] | EC50 [18] [µg/mL] | EC50 [19] [µg/mL] | other results
B1 | 0.8 | 1 | 1 | 2.59 |  |  |  |  |  |  |  | 
B2 |  |  |  |  | 1 | 4 | 1 | 2 | 2 | 1.3 | 0.583 | HAI titer, B Rh+ RBC [5]: 0.39 µg/mL; HAI titer, B Rh+ RBC [6]: 0.39 µg/mL; minimum concentration of VHH able to recognize 100 ng of VLP [7]: 2 ng/well; minimum concentration of VHH able to recognize 100 ng of VLP [8]: 2 ng/well; minimum concentration of VHH able to recognize 100 ng of VLP [9]: 1 ng/well; minimum concentration of VHH able to recognize 100 ng of VLP [10]: 0.5 ng/well; minimum concentration of VHH able to recognize 100 ng of VLP [11]: 1 ng/well; minimum concentration of VHH able to recognize 100 ng of VLP [15]: 2 ng/well
B3 | 0.78 | 1 |  |  |  |  |  |  |  |  |  | 
B4 |  | 1 |  |  |  |  |  |  |  |  |  | 
B5 |  |  |  |  | 1 | 0.5 | 0.25 | 0.5 | 0.25 | 2.01 | 0.341 | EC50 [20]: 0.85 µg/mL
B6 |  |  |  |  |  |  |  | 0.5 |  |  | 0.767 | binding result [3]: no binding
B7 | 0.05 | 0.5 | 0.5 | 0.351 |  |  |  |  |  |  |  | HAI titer, 0 Rh- RBC [21]: 0.78 µg/mL; EC50 [22]: 1.56 µg/mL
B8 |  |  | 0.5 | 1.14 |  |  |  |  |  |  |  | EC50 [22]: 1.72 µg/mL
B9 |  |  |  |  | 0.5 | 1 | 0.5 | 2 | 0.5 | 0.917 | 2.3 | HAI titer, B Rh+ RBC [5]: 0.19 µg/mL; HAI titer, B Rh+ RBC [6]: 0.19 µg/mL; minimum concentration of VHH able to recognize 100 ng of VLP [8]: 0.5 ng/well; EC50 [20]: 0.641 µg/mL
B10 |  |  |  |  | 0.5 | 8 |  | 0.5 | 0.25 |  |  | 
